Measurements from patent US20180339059A1 (DINGFU BIOTARGET, published 2018).
Substitutions are numbered along the chain they refer to.

T1: hOX40-muFc (human; mouse, UniProt P43489 29-216)
T1 construct: range 1-216; Expressed in HEK293, purified on Protein A; also called recombinant human OX40; not shown: mouse IgG1-Fc (muFc) domain, residue 98 to residue 324 of P01868
T1 sequence (looked up): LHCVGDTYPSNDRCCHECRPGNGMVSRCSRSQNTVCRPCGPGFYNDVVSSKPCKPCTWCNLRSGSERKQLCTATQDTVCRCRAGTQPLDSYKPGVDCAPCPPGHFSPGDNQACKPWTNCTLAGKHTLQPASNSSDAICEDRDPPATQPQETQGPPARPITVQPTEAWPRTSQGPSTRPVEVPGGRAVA

T2: hCD27-EGFP on HEK293 cells (human, UniProt P26842 20-260)
T2 construct: pcDNA4-hCD27-EGFP transfected into HEK293; not shown: EGFP, C5MKY7
T2 sequence (looked up): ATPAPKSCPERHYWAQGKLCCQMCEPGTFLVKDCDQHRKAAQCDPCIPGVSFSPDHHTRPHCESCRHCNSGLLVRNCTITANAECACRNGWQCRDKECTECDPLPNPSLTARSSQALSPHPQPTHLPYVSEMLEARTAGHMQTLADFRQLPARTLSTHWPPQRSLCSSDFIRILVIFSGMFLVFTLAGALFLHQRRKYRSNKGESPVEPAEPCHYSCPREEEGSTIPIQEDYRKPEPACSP

B1: anti-OX40 21#VHnew-L80 mAb (antibody, IgG4, V domains shown)
VH: QVQLQQSGPGLVKPSQTLSLTCAISGDSVSSNGVSWDWIRQSPSRGLEWLGRTYYRSKWYNEYAVSVENRITINPDTSKNQFSLQLNSVTPEDTAIYFCVRNDYFFDLWGRGTLVTVSS
VL: EIVLTQSPATLSLSPGERATLSCRASQSVGSYLAWYQQKPGQAPRLLIYDASNRATGIPARFSGSGSGTDFTLTISSLEPEDFAVYYCQQRSNWPPGYTFGQGTKVEIK
notes: Formatted as IgG according to Embodiment 3 (IgG4); not shown: human immunoglobulin gamma4 (IgG4) constant region, P01861; human immunoglobulin kappa light chain constant region, P01834
B2: anti-OX40 21#H96-L80 mAb (antibody, V domains shown)
VH: B1 VH with G33S, N69S
VL: B1 VL
notes: Formatted as IgG according to Embodiment 3 (IgG4); also called H96-L80 IgG4; not shown: human immunoglobulin gamma4 (IgG4) constant region, P01861; human immunoglobulin kappa light chain constant region, P01834
B3: O21 mAb (antibody, IgG4, V domains shown)
VH: B1 VH with G33S, N69S, D103N
VL: B1 VL with G30S, N53D, Q90L
notes: also called 021 mAb; anti-OX40 21# mAb; not shown: human immunoglobulin gamma4 (IgG4) constant region, P01861; human immunoglobulin kappa light chain constant region, P01834
B4: O3 mAb (antibody, IgG4, V domains shown)
VH: QVQLQQWGAGLLKPSETLSLTCGFNGEYFTDYFWTWVRQPPGEALEWLALIYWDDDERYSPSLKNRLIITKDISKNQVVLTMTHMEPADTGTYYCARWGGSLMNAFDVWGPGTMVTVSS
VL: QSALIQPASVSGSPGQSITISCTGTSSDVGGYNYVSWYQRHPGKAPRLMIYDVTKRPSGVSNRFSGSKSGNTASLTISGLQAEDEADYYCSSYTSSSIAVFGGGTQLTVL
notes: IgG4, lambda; expressed in HEK293; also called 03 mAb; not shown: human immunoglobulin gamma4 (IgG4) constant region, P01861; human immunoglobulin lambda light chain constant region, A0M8Q6
B5: O19 mAb (antibody, IgG4, V domains shown)
VH: QVQLVESEGGLVQPGGSLRLSCAASRFTFSNYWMSWVRQAPGKGLEWVANIKQDGSEKYYMDSVKGRFTISRDNAKNSLFLQMNTLRAEDTAMYYCTRVSFGVPTYDDFWRSYATPAWYFDFWGRGTLVTVSS
VL: QSALIQPASVSGSPGQSITISCTGISSDDGYYKYVSWYQQYPGKAPKLMIYDVSKRPSGISFRFSGSKSGNTASLTISGLQAEDEADYYCSSYTSNMTPYVFGTGTKVTVL
notes: IgG4, lambda; expressed in HEK293; not shown: human immunoglobulin gamma4 (IgG4) constant region, P01861; human immunoglobulin lambda light chain constant region, A0M8Q6
B6: O3 scFv (scFv)
scFv: QVQLQQWGAGLLKPSETLSLTCGFNGEYFTDYFWTWVRQPPGEALEWLALIYWDDDERYSPSLKNRLIITKDISKNQVVLTMTHMEPADTGTYYCARWGGSLMNAFDVWGPGTMVTVSSGGGGSGGGGSGGGGSQSALIQPASVSGSPGQSITISCTGTSSDVGGYNYVSWYQRHPGKAPRLMIYDVTKRPSGVSNRFSGSKSGNTASLTISGLQAEDEADYYCSSYTSSSIAVFGGGTQLTVL
notes: Purified as scFv fused with human IgG1-Fc, expressed in HEK293; also called anti-hOX40 scFv O3; not shown: human IgG1-Fc (hFc) domain, residues 104-330 of P01857
B7: O21 scFv (scFv)
scFv: QVQLQQSGPGLVKPSQTLSLTCAISGDSVSSNSVSWDWIRQSPSRGLEWLGRTYYRSKWYNEYAVSVESRITINPDTSKNQFSLQLNSVTPEDTAIYFCVRNNYFFDLWGRGTLVTVSSGGGGSGGGGSGGGGSEIVLTQSPATLSLSPGERATLSCRASQSVSSYLAWYQQKPGQAPRLLIYDASDRATGIPARFSGSGSGTDFTLTISSLEPEDFAVYYCQLRSNWPPGYTFGQGTKVEIK
notes: Purified as scFv fused with human IgG1-Fc; also called anti-OX40 21# scFv; not shown: human IgG1-Fc (hFc) domain, residues 104-330 of P01857
B8: anti-OX40 21#H96 mAb (antibody, IgG4, V domains shown)
VH: B1 VH with G33S, N69S
VL: B1 VL with G30S, N53D, Q90L
notes: Formatted as IgG according to Embodiment 3 (IgG4); also called H96 heavy chain mutant; not shown: human immunoglobulin gamma4 (IgG4) constant region, P01861; human immunoglobulin kappa light chain constant region, P01834
B9: anti-OX40 21#H65 mAb (antibody, IgG4, V domains shown)
VH: B1 VH with G33S, D103N
VL: B1 VL with G30S, N53D, Q90L
notes: as for B1
B10: anti-OX40 21#H28H33 mAb (antibody, IgG4, V domains shown)
VH: B1 VH with S28N, N69S, D103N
VL: B1 VL with G30S, N53D, Q90L
notes: Formatted as IgG 'according to the method in Embodiment 3' (IgG4); not shown: human immunoglobulin gamma4 (IgG4) constant region, P01861; human immunoglobulin kappa light chain constant region, P01834

molecular target: T1, hOX40-muFc; assay: ELISA, hOX40-muFc coated at 2 µg/ml, goat anti-human IgG-HRP
Procedure: (§1) hOX40-muFc was diluted to 2 μg/ml with coating buffer (50 mM Na₂CO₃, NaHCO₃ pH 9.6), 100 μL/well, 4° C. overnight. After washing, blocking was performed using 3% BSA-PBS for 1 h at 37° C. The anti-hOX40 antibodies were diluted respectively from 2000 ng/ml and was diluted 2-fold in a total of 11 concentrations, with the diluent (1% BSA-PBS) as a control, and incubated at 37° C. for 2 h. Goat anti-human IgG-HRP conjugated was added and incubated for 1 h at 37° C. Soluble one-component TMB substrate developer solution is added, and the developing was performed in dark at room temperature for 5-10 min. 2N H₂SO₄ 50 μL/well was added to terminate the color development reaction. The OD of the obtained solution was determined at 450 nm-650 nm on MD SpectraMax Plus 384 microplate reader and SoftMaxPro v5.4 was used for processing data, making graphs and analysis. […] It can be seen from FIG. 5 and FIG. 6 that all the above variants of anti-OX40 21 # mAb can bind to OX40 and the affinity of the in vitro affinity-matured anti-OX40 21 # VHnew-L80 mAb and anti-OX40 21#H96-L80 mAb increased approximately two times compared to anti-OX40 21# mAb.

B1 and B2 are the same in “fold increase of affinity compared to anti-OX40 21# mAb” value: about 2 times for the first, about 2 times for the second.

molecular target: T1, hOX40-muFc; assay: ELISA, hOX40-muFc coated at 2 µg/ml, goat anti-human IgG-HRP; column C of the drawn 4-P fit table y=(A-D)/(1+(x/C)^B)+D; the axis prints no unit, ng/ml is from paragraph 210
Procedure: as §1

Going from B3 to B1, the EC50 falls from 0.0298 µg/mL to 0.0134 µg/mL (2.2-fold).

B2 gave an EC50 of 0.0154 µg/mL.

molecular target: T1, hOX40-muFc; assay: SPR, BIAcore X100; antibody captured by anti-human Fc on CM5 chip, OX40-muFc as analyte, 1:1 model
Procedure: (§2) The binding kinetics of anti-hOX40 antibody to recombinant human OX40 was measured by surface plasmon resonance (SRP) method using a BIAcore X100 instrument. Anti-human Fc antibody (no cross-identification against the mouse Fc) was conjugated on CM5 chip, the test antibody was diluted to 5 nM with running buffer and captured as a ligand by the anti-human Fc antibody on the CM5 chip. […] The injection time is 180 s, the dissociation time is 1800 s and the regeneration time is 60 s. The running buffer is HBS-EP+, and the regeneration buffer is 10 mM glycine-HCl (pH 2.0). The association rate (kₒₙ) and dissociation rate (koff) were calculated using a simple one-to-one Languir binding model (BIAcore Evaluation Software version 3.2). The equilibrium dissociation constant (kD) is calculated as the ratio koff/kₒₙ. It can be seen from Table 3 that the affinity of the affinity-matured anti-OX40 21 # H96-L80 mAb is increased approximately two times.

B3 and B1 are within 1.5-fold of each other in Kd: 14.5 nM for the first, 10.3 nM for the second.

Compared with B2, B4 is 5.7-fold lower in Kd: 7.9 nM for the first, 1.38 nM for the second.

First: B3
Second: B1
The koff of the first is 1.8-fold higher: 0.000608 s⁻¹ for the first, 0.000342 s⁻¹ for the second.

Going from B2 to B4, the koff rises from 0.000237 s⁻¹ to 0.000391 s⁻¹ (1.6-fold).

B3 and B1 are within 1.5-fold of each other in kon: 41800 M⁻¹ s⁻¹ for the first, 33300 M⁻¹ s⁻¹ for the second.

First: B2
Second: B4
The kon of the first is 9.5-fold lower: 30000 M⁻¹ s⁻¹ for the first, 284000 M⁻¹ s⁻¹ for the second.

molecular target: T2, hCD27-EGFP on HEK293 cells; assay: flow cytometry on HEK293 cells expressing hCD27-EGFP, anti-hIg-PE
Procedure: (§3) HEK293 cells expressing hOX40-EGFP, hCD137-EGFP and hCD27-EGFP obtained in Embodiment 1 were resuspended in 0.5% PBS-BSA Buffer and anti-hOX40 mAb protein was added and the mixture was incubated on ice for 20 min. After washing, secondary antibody anti-hlg-PE (eBioscience) was added, and the mixture was incubated on ice for 20 min. After washing, the cells were resuspended in 500 μl 0.5% PBS-BSA Buffer and detected by flow cytometry.

B3: no binding.
B5: no binding.

molecular target: T3, hCD137-EGFP on HEK293 cells (human, UniProt Q07011 24-255); assay: flow cytometry on HEK293 cells expressing hCD137-EGFP, anti-hIg-PE
T3 construct: pcDNA4-hCD137-EGFP transfected into HEK293; not shown: EGFP, C5MKY7
Procedure: as §3

T3 sequence (Q07011 24-255): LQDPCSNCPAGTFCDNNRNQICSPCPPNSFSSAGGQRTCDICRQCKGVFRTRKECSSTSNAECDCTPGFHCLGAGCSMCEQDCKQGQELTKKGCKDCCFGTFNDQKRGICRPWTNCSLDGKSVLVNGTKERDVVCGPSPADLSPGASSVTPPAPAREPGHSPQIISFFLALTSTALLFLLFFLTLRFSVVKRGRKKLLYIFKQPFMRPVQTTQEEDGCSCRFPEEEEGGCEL

B3: no binding.
B5: no binding.

molecular target: T1, hOX40-muFc; assay: ELISA, hOX40-muFc coated at 2 µg/ml, goat anti-human IgG-HRP; column C of the drawn 4-P fit table y=(A-D)/(1+(x/C)^B)+D; the axis prints no unit, ng/ml is from paragraph 210; remark: another data set of the same source
Procedure: as §1

Compared with B6, B3 is 22-fold lower in EC50: 0.309 µg/mL for the first, 0.0139 µg/mL for the second.

B7 and B4 are within 1.5-fold of each other in EC50: 0.00949 µg/mL for the first, 0.0139 µg/mL for the second.

molecular target: T1, hOX40-muFc; assay: as above; remark: another data set of the same source
Procedure: as §1

Going from B8 to B3, the EC50 rises from 0.046 µg/mL to 0.0758 µg/mL (1.6-fold).

B9 and B10 are within 1.5-fold of each other in EC50: 0.0609 µg/mL for the first, 0.0432 µg/mL for the second.

molecular target: T1, hOX40-muFc; assay: SPR, BIAcore X100; antibody captured by anti-human Fc on CM5 chip, OX40-muFc as analyte
Procedure: as §2

For B2, the “fold increase of affinity (reference not given; O21 mAb by Table 3)” value was about 2 times.
